From US20230365641
Several values for one entry are separate records, joined by “and”; a condition that tells them apart may be missing. Equal values may be shown once.

Chain of recombinant human MMP-9 (chain, as listed by the source): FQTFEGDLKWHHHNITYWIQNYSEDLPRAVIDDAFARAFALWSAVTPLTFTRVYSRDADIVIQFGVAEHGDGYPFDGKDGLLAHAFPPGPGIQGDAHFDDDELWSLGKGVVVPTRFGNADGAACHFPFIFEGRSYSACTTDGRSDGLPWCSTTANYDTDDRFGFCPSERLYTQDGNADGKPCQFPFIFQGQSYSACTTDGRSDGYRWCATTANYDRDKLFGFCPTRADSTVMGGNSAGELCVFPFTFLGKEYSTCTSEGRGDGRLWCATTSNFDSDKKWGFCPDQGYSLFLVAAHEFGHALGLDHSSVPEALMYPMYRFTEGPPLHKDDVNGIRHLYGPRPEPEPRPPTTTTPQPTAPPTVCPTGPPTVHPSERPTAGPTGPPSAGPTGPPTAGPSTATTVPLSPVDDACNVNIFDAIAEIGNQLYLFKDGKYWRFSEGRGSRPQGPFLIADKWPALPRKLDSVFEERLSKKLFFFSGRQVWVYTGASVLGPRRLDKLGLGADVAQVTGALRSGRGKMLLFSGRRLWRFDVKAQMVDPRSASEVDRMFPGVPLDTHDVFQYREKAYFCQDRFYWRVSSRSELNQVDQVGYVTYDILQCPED
Chain of MMP-10 protease (chain, as listed by the source): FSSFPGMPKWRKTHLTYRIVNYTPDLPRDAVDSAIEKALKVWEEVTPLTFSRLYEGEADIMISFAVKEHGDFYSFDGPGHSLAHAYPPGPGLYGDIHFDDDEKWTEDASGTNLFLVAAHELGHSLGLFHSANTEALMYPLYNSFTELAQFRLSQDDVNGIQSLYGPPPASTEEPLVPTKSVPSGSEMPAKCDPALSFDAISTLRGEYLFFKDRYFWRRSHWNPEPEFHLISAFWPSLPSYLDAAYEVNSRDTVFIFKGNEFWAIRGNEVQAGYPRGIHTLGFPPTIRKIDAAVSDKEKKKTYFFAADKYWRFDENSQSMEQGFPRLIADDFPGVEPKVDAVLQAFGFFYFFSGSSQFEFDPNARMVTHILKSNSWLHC
Chain of TC24 (chain, as listed by the source, chain 1 of 3, other chains not shown): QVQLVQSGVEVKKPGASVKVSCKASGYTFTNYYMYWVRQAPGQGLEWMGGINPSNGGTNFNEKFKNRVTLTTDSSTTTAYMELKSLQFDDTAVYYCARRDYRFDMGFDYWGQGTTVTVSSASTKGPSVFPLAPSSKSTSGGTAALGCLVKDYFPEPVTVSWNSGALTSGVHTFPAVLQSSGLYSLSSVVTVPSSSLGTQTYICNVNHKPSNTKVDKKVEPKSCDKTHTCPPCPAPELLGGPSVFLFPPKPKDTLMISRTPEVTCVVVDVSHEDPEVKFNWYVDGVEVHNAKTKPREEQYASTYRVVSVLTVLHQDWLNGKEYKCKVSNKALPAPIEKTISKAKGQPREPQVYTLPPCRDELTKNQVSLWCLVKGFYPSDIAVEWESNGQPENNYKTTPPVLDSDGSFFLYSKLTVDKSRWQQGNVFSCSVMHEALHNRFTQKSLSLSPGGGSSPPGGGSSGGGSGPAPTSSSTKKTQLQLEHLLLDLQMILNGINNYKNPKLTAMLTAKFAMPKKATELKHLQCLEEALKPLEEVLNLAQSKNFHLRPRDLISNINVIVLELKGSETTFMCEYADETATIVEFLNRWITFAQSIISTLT
Chain of TC24 (chain, as listed by the source, chain 2 of 3, other chains not shown): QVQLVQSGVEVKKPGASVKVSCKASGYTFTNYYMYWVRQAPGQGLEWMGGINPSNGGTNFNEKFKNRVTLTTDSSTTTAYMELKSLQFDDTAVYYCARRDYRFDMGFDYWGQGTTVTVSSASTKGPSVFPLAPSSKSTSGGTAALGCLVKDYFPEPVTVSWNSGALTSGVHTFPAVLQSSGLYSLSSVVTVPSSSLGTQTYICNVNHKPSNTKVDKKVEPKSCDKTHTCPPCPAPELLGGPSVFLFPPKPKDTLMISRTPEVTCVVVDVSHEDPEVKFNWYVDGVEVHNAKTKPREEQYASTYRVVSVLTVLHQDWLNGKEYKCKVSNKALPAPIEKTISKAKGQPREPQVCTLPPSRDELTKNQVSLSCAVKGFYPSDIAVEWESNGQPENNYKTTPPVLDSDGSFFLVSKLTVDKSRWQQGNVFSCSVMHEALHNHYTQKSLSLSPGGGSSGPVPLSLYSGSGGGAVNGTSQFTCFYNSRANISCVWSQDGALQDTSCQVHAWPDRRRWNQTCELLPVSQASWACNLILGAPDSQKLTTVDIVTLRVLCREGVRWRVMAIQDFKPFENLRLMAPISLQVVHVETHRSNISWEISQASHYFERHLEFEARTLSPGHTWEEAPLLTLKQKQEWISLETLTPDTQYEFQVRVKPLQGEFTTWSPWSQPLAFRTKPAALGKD
Chain of TC47 (chain, as listed by the source, chain 1 of 3, other chains not shown): as the sequence (chain, as listed by the source, chain 1 of 3, other chains not shown) above
Chain of TC47 (chain, as listed by the source, chain 2 of 3, other chains not shown): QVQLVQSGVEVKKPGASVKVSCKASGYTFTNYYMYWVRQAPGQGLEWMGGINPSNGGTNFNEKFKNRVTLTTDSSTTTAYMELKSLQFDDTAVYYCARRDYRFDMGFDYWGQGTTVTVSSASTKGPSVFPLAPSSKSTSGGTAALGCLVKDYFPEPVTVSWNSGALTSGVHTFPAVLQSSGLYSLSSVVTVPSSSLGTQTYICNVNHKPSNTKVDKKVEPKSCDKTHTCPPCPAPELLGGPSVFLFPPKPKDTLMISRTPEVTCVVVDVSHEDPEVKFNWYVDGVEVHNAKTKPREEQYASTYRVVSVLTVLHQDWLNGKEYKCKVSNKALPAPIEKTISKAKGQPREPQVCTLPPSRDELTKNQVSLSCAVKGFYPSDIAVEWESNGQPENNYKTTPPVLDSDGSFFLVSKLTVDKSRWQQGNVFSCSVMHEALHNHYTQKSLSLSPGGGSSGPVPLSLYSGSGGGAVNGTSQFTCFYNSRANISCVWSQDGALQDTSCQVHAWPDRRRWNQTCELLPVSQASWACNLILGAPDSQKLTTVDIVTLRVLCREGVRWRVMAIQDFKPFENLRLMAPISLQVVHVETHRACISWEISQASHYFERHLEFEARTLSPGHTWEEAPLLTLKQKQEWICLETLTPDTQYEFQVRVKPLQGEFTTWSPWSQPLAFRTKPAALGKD
Chain of TC3 (chain, as listed by the source, chain 1 of 3, other chains not shown): as the sequence (chain, as listed by the source, chain 1 of 3, other chains not shown) above
Chain of TC3 (chain, as listed by the source, chain 2 of 3, other chains not shown): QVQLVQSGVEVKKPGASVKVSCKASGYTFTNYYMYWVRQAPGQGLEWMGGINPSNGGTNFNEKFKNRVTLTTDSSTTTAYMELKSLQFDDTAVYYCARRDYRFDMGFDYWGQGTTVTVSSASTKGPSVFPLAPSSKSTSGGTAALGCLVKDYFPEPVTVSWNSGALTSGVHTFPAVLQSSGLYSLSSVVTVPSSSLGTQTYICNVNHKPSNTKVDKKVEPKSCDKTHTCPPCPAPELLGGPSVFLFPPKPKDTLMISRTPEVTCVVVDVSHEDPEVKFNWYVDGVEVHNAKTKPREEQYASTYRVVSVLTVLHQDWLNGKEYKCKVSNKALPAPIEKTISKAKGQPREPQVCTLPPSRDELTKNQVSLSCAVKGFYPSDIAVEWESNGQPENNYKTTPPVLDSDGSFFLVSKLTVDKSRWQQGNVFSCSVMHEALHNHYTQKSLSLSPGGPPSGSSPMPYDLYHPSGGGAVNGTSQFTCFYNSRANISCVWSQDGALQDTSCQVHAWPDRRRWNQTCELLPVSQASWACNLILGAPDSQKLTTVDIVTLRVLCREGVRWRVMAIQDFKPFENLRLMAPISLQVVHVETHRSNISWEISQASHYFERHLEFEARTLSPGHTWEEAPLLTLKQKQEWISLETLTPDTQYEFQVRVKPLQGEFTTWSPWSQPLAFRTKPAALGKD
Chain of TC46 (chain, as listed by the source, chain 1 of 3, other chains not shown): as the sequence (chain, as listed by the source, chain 1 of 3, other chains not shown) above
Chain of TC46 (chain, as listed by the source, chain 2 of 3, other chains not shown): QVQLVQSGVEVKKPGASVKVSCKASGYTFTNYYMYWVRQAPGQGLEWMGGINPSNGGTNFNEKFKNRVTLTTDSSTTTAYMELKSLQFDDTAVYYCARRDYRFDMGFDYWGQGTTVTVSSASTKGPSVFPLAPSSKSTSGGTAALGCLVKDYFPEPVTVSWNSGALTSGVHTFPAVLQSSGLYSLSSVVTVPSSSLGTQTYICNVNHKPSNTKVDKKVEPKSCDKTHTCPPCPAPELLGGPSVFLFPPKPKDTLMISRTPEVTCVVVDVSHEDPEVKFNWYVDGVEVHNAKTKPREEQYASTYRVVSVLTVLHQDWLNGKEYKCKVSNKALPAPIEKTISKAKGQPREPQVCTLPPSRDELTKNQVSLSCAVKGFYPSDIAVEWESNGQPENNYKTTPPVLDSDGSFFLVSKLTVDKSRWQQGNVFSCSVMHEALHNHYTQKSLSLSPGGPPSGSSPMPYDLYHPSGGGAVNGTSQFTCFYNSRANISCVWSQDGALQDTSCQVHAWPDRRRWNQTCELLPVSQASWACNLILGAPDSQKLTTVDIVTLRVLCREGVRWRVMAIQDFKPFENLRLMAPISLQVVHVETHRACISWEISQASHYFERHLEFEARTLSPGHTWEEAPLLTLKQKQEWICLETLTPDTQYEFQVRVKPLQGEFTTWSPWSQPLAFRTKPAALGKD

In the case of MMP-10 protease, the cleavage efficiency (TC24) is reported as “cleavage efficiency of greater than 80%”, the cleavage efficiency (TC27) is reported as “cleavage efficiency of greater than 80%” and the cleavage efficiency (TC26) is reported as “cleavage efficiency of greater than 80%”. The cleavage efficiency (TC21) was “cleavage efficiency of greater than 80%”.

With recombinant human MMP-9 the Est. kcat/KM (TC53) was 19000 M⁻¹ s⁻¹ and 18000 M⁻¹ s⁻¹, the Est. kcat/KM (TC68) was 16000 M⁻¹ s⁻¹ and 15000 M⁻¹ s⁻¹ and the Est. kcat/KM (TC47) was 38000 M⁻¹ s⁻¹. The Est. kcat/KM (TC75) was 25000 M⁻¹ s⁻¹ and 26000 M⁻¹ s⁻¹, the Est. kcat/KM (TC24) was 42000 M⁻¹ s⁻¹ and the Est. kcat/KM (TC57) was 13000 M⁻¹ s⁻¹ and 14000 M⁻¹ s⁻¹. For the same substance, the Est. kcat/KM (TC74) was 850 M⁻¹ s⁻¹ and 860 M⁻¹ s⁻¹, the Est. kcat/KM (TC73) was 30000 M⁻¹ s⁻¹ and 29000 M⁻¹ s⁻¹ and the Est. kcat/KM (TC3) was 3500 M⁻¹ s⁻¹. For the same substance, the Est. kcat/KM (TC70) was 390 M⁻¹ s⁻¹ and 370 M⁻¹ s⁻¹, the Est. kcat/KM (TC69) was 35000 M⁻¹ s⁻¹ and 36000 M⁻¹ s⁻¹ and the Est. kcat/KM (TC71) was 28000 M⁻¹ s⁻¹ and 30000 M⁻¹ s⁻¹. The Est. kcat/KM (TC46) was 3500 M⁻¹ s⁻¹.
